FireProtDB (doi:10.1021/bi00485a005)

B1: Guanyl-specific ribonuclease T1, P00651 (parent)
chain: MMYSKLLTLTTLLLPTALALPSLVERACDYTCGSNCYSSSDVSTAQAAGYQLHEDGETVGSNSYPHKYNNYEGFDFSVSSPYYEWPILSSGDVYSGGSPGADRVVFNENNQLAGVITHTGASGNNFVECT

Variants of: B1
Conditions: Aspergillus oryzae (strain ATCC 42149 / RIB 40); pH 6.01; 25 °C; Urea; Fluorescence; MES 30 mM; NaCl 0.2 M; structure 1RN1; whole UniProt chain shown

**Q.** For E84A, which “ddG of mutation (higher = less stable)” value is on record?
**A.** 0.64 kcal/mol

**Q.** What about the denaturant m value of the same variant?
**A.** 1.34 kcal/mol/M

**Q.** And the “denaturant midpoint (higher = more stable)” value?
**A.** 5.67 M

**Q.** What about the unfolding free energy of the same variant?
**A.** 7.6 kcal/mol

Same assay, conditions: Aspergillus oryzae (strain ATCC 42149 / RIB 40); pH 8.01; 25 °C; Urea; Fluorescence; HEPPSO 30 mM; NaCl 0.2 mM; structure 1RN1; whole UniProt chain shown

**Q.** What does the source list for E84A?
**A.** ddG of mutation (higher = less stable): -0.71 kcal/mol; denaturant m value: 1.36 kcal/mol/M; denaturant midpoint (higher = more stable): 4.89 M; unfolding free energy: 6.63 kcal/mol
